Experimental findings from article PMC4713166, “Chicken scFvs with an Artificial Cysteine for Site-Directed Conjugation” (PLoS ONE, 2016) are described below.

Test [1] concerns the target T1, recombinant human Fc-tagged PSA (Homo sapiens, UniProt P07288).
T1 construct: prostate-specific antigen (PSA), human; also called prostate-specific antigen; recombinant Fc-tagged PSA
Nature of the test: ELISA; enzyme immunoassay: recombinant human Fc-tagged PSA coated on the plate (0.1 M NaHCO3 pH 8.6, overnight at 4 C), blocked with 3% BSA in PBS; 250 ng cotinine-conjugated scFv-C kappa fusion protein in 50 ul, 1 h at 37 C; HRP-conjugated anti-cotinine IgG1 or HRP-conjugated anti-human C kappa antibody, TMB, optical density at 450 nm. As to conditions: both partners purified. On the technique in general: In an ELISA, binding on a coated surface is turned into a signal by an enzyme label.

Test [2] deals with T1, recombinant human Fc-tagged PSA. Nature of the test: ELISA; phage enzyme immunoassay: recombinant human Fc-tagged PSA coated on the microtiter plate (5 ug/ml in PBS, overnight at 4 C), blocked with 3% BSA in PBS; scFv-displaying phages in culture supernatant; HRP-conjugated anti-M13 antibody, ABTS, optical density at 405 nm. To be noted: one partner purified.

T1 sequence (P07288 18-261): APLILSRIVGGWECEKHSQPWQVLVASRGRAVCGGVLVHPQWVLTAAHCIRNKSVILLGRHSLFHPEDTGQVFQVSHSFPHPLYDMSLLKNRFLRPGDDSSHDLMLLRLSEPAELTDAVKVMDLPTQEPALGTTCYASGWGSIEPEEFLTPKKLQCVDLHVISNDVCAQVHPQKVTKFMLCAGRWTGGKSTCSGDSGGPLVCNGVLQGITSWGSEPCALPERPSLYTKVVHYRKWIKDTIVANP

B1: charge-variant artificial H13 cysteine-mutant scFv RCK, scFv-C kappa fusion protein cotinine conjugate (scFv, V domains shown)
VH: AVTLDESGGGLRCKGGALSLVCKASGFTFSSYDMGWVRQAPGKGLEWVAGIDDDGSYPNYGPAVKGRATISRDNGQSTVRLQLNNLRAEDTGTYFCAKGIESDSDGYMTAEEIDAWGHGTEVIVSS
VL: ALTQPSSVSANLGGTVKITCSGGYSYYGWYQQKSPGSAPVTVIYESTKRPSNIPSRFSGSTSGSTGTLTITGVQADDAAVYYCGSWDSSSVGIFGAGTTLTVL
notes: VL as in m2; VH as in m6 (GenBank KP764767 with cysteine at Kabat H13), the flanking residues of H13 changed from QCP to RCK; source: HEK293F, transfected, purified (KappaSelect); reduced with TCEP-HCl, treated with dehydroascorbic acid, conjugated with GMBS-coupled cotinine
Take B1: the binding result in test [1] is “binds”.

B2: artificial cysteine-mutant scFv L5, scFv-pIII fusion protein displayed on phage (scFv, V domains shown)
VH: AVTLDESGGGLQTPGGALSLVCKASGFTFSSYDMGWVRQAPGKGLEWVAGIDDDGSYPNYGPAVKGRATISRDNGQSTVRLQLNNLRAEDTGTYFCAKGIESDSDGYMTAEEIDAWGHGTEVIVSS
VL: ALCQPSSVSANLGGTVKITCSGGYSYYGWYQQKSPGSAPVTVIYESTKRPSNIPSRFSGSTSGSTGTLTITGVQADDAAVYYCGSWDSSSVGIFGAGTTLTVL
notes: VH as in m2; Order VL-linker-VH worked out as for m2
With B2, the binding result in test [2] is on record as “binds”.

B3: charge-variant artificial H13 cysteine-mutant scFv ECD, scFv-C kappa fusion protein cotinine conjugate (scFv, V domains shown)
VH: AVTLDESGGGLECDGGALSLVCKASGFTFSSYDMGWVRQAPGKGLEWVAGIDDDGSYPNYGPAVKGRATISRDNGQSTVRLQLNNLRAEDTGTYFCAKGIESDSDGYMTAEEIDAWGHGTEVIVSS
VL: ALTQPSSVSANLGGTVKITCSGGYSYYGWYQQKSPGSAPVTVIYESTKRPSNIPSRFSGSTSGSTGTLTITGVQADDAAVYYCGSWDSSSVGIFGAGTTLTVL
notes: VL as in m2; VH as in m6 (GenBank KP764767 with cysteine at Kabat H13), the flanking residues of H13 changed from QCP to ECD; source: HEK293F, transfected, purified (KappaSelect); reduced with TCEP-HCl, treated with dehydroascorbic acid, conjugated with GMBS-coupled cotinine
Take B3: in test [1], the binding result is on record as “binds”.

B4: artificial cysteine-mutant scFv H13 (QCP), scFv-pIII fusion protein displayed on phage (scFv, V domains shown)
VH: AVTLDESGGGLQCPGGALSLVCKASGFTFSSYDMGWVRQAPGKGLEWVAGIDDDGSYPNYGPAVKGRATISRDNGQSTVRLQLNNLRAEDTGTYFCAKGIESDSDGYMTAEEIDAWGHGTEVIVSS
VL: ALTQPSSVSANLGGTVKITCSGGYSYYGWYQQKSPGSAPVTVIYESTKRPSNIPSRFSGSTSGSTGTLTITGVQADDAAVYYCGSWDSSSVGIFGAGTTLTVL
notes: VL as in m2; Order VL-linker-VH worked out as for m2
Take B4: the binding result in test [2] is “binds”.

B5: artificial cysteine-mutant scFv L5, scFv-C kappa fusion protein cotinine conjugate (scFv, V domains shown)
VH: AVTLDESGGGLQTPGGALSLVCKASGFTFSSYDMGWVRQAPGKGLEWVAGIDDDGSYPNYGPAVKGRATISRDNGQSTVRLQLNNLRAEDTGTYFCAKGIESDSDGYMTAEEIDAWGHGTEVIVSS
VL: ALCQPSSVSANLGGTVKITCSGGYSYYGWYQQKSPGSAPVTVIYESTKRPSNIPSRFSGSTSGSTGTLTITGVQADDAAVYYCGSWDSSSVGIFGAGTTLTVL
notes: VL as in m3: GenBank KP764766 with Kabat residue L5 replaced with cysteine; VH as in m2; that it was a cotinine conjugate of the scFv-C kappa protein is inferred from that detection; also called L5 mutant scFv; source: HEK293F, transfected, purified (KappaSelect); conjugated with GMBS-coupled cotinine
As for B5, the binding result in test [1] is “binds”.

B6: artificial cysteine-mutant scFv H16, scFv-pIII fusion protein displayed on phage (scFv, V domains shown)
VH: AVTLDESGGGLQTPGCALSLVCKASGFTFSSYDMGWVRQAPGKGLEWVAGIDDDGSYPNYGPAVKGRATISRDNGQSTVRLQLNNLRAEDTGTYFCAKGIESDSDGYMTAEEIDAWGHGTEVIVSS
VL: ALTQPSSVSANLGGTVKITCSGGYSYYGWYQQKSPGSAPVTVIYESTKRPSNIPSRFSGSTSGSTGTLTITGVQADDAAVYYCGSWDSSSVGIFGAGTTLTVL
notes: as for B4
Take B6: in test [2], the binding result was “binds”.

B7: artificial cysteine-mutant scFv L6, scFv-pIII fusion protein displayed on phage (scFv, V domains shown)
VH: AVTLDESGGGLQTPGGALSLVCKASGFTFSSYDMGWVRQAPGKGLEWVAGIDDDGSYPNYGPAVKGRATISRDNGQSTVRLQLNNLRAEDTGTYFCAKGIESDSDGYMTAEEIDAWGHGTEVIVSS
VL: ALTCPSSVSANLGGTVKITCSGGYSYYGWYQQKSPGSAPVTVIYESTKRPSNIPSRFSGSTSGSTGTLTITGVQADDAAVYYCGSWDSSSVGIFGAGTTLTVL
notes: as for B2
B7: the binding result in test [2] is reported as “binds”.

B8: charge-variant artificial H13 cysteine-mutant scFv ECE, scFv-C kappa fusion protein cotinine conjugate (scFv, V domains shown)
VH: AVTLDESGGGLECEGGALSLVCKASGFTFSSYDMGWVRQAPGKGLEWVAGIDDDGSYPNYGPAVKGRATISRDNGQSTVRLQLNNLRAEDTGTYFCAKGIESDSDGYMTAEEIDAWGHGTEVIVSS
VL: ALTQPSSVSANLGGTVKITCSGGYSYYGWYQQKSPGSAPVTVIYESTKRPSNIPSRFSGSTSGSTGTLTITGVQADDAAVYYCGSWDSSSVGIFGAGTTLTVL
notes: VL as in m2; VH as in m6 (GenBank KP764767 with cysteine at Kabat H13), the flanking residues of H13 changed from QCP to ECE; source: HEK293F, transfected, purified (KappaSelect); reduced with TCEP-HCl, treated with dehydroascorbic acid, conjugated with GMBS-coupled cotinine
As to B8, in test [1], the binding result is given as “binds”.

B9: artificial cysteine-mutant scFv L7, scFv-pIII fusion protein displayed on phage (scFv, V domains shown)
VH: AVTLDESGGGLQTPGGALSLVCKASGFTFSSYDMGWVRQAPGKGLEWVAGIDDDGSYPNYGPAVKGRATISRDNGQSTVRLQLNNLRAEDTGTYFCAKGIESDSDGYMTAEEIDAWGHGTEVIVSS
VL: ALTQCSSVSANLGGTVKITCSGGYSYYGWYQQKSPGSAPVTVIYESTKRPSNIPSRFSGSTSGSTGTLTITGVQADDAAVYYCGSWDSSSVGIFGAGTTLTVL
notes: as for B2
Regarding B9, the binding result in test [2] was “binds”.

B10: charge-variant artificial H13 cysteine-mutant scFv DCE, scFv-C kappa fusion protein cotinine conjugate (scFv, V domains shown)
VH: AVTLDESGGGLDCEGGALSLVCKASGFTFSSYDMGWVRQAPGKGLEWVAGIDDDGSYPNYGPAVKGRATISRDNGQSTVRLQLNNLRAEDTGTYFCAKGIESDSDGYMTAEEIDAWGHGTEVIVSS
VL: ALTQPSSVSANLGGTVKITCSGGYSYYGWYQQKSPGSAPVTVIYESTKRPSNIPSRFSGSTSGSTGTLTITGVQADDAAVYYCGSWDSSSVGIFGAGTTLTVL
notes: VL as in m2; VH as in m6 (GenBank KP764767 with cysteine at Kabat H13), the flanking residues of H13 changed from QCP to DCE; also called DEC (as printed once); source: HEK293F, transfected, purified (KappaSelect); reduced with TCEP-HCl, treated with dehydroascorbic acid, conjugated with GMBS-coupled cotinine
Take B10: the binding result in test [1] is recorded as “binds”.
